What was measured:
[1] = target: T1, Cyno CD33 full length, expressed on HEK293F cells (cynomolgus monkey); experiment: flow cytometry, HEK293F cells expressing cyno CD33
T1 construct: HEK293F cells transduced with lentivirus containing full length cyno CD33 (Genbank XP_005590138.1); also called cyCD33
Description: (§1) OMNIRat antibodies identified via immunization, v-region cloned and subsequently expressed and purified were characterized further for binding to CD33 expressing cells and binding to recombinant antigens. The purified antibodies were assessed for binding to stably transfected HEK293F cells expressing human CD33 or cyno CD33 (generation described above) along with the parental HEK293F as negative control. Cells were harvested from tissue culture flasks using non-enzymatic dissociation buffer (Thermo Scientific). The flasks were rinsed twice with PBS and dissociation buffer was added to the flask, and the flask was incubated for 10 minutes at 37° C. until the cells became non-adherent. The cells were centrifuged at 300 g for 5 minutes and resuspended at 1.0×10⁶ cells/ml in staining buffer (Becton Dickinson; Franklin Lakes, NJ). 50,000 cells/well of each cell type was plated in 50 μl of staining buffer in round bottom plates (Becton Dickinson). […] 100 μl staining buffer was added to all wells of each plate, the plates were spun at 300 g for 5 min, the buffer was removed, 200 μl staining buffer was added to all wells of each plate, the plates were spun at 300 g for 5 min, and the buffer was removed. 50 μl of 2 μg/ml of Goat-anti-human Fc AF647 secondary antibody (Jackson Immunoresearch; West Grove, PA) was added to all wells of the plates, and the plates were incubated for 30 min at 4° C. 100 μl staining buffer was added to all wells of the plates, the plates were spun at 300 g for 5 min, and the buffer was removed. 200 μl running buffer (running buffer is Staining buffer, 1 mM EDTA, 0.1% Pluronic Acid) was added to all wells of the plates, the plates were spun at 300 g for 5 min, and the buffer was removed. 30 μl running buffer containing Sytox Green live/dead dye (ThermoFisher) was added to all wells with cells and the plates were read on an iQue IntelliCyt flow cytometer. Cells were gated on forward vs. side scatter to eliminate debris, then on singlets and then on live cells which excluded the Sytox stain. Antibody binding was assessed by the mean fluorescence intensity in the AF647 channel.

Human CD33 ECD-HSA [2] = target: Human CD33 ECD-HSA (human); experiment: SPRi off-rate screen (IBIS MX96), mAb captured by anti-human Fc; column head prints KD
Description: (§2) To begin assessing the biophysical binding properties of the purified mAbs an off-rate screen was performed. 76 OMNIRat anti-CD33 mAbs were tested for binding to recombinant human CD33 ECD-HSA (C33W2) and cyno CD33 ECD-HSA (C33W1) proteins (Janssen production) and the off-rate was measured by IBIS MX96 SPRi array platform (Carterra; Newton, PA). […] The sensor chip was transferred to the Continuous Flow Microspotter (CFM) unit to capture each anti-CD33 mAb at 10 μg/ml for 10 minutes. Binding was measured on IBIS SPRi by single cycle kinetics without regeneration. […] The raw binding data (.trix file format) were referenced and aligned using SprintX software (Wasatch, Ver 1.9.3.2), then exported (.ibmx file format) to Scrubber software (Ver. 2.0) for 1:1 binding kinetic analyses (Wasatch, version 2.0.0.33) to extract the koff results.

Cyno CD33 ECD-HSA [3] = target: T2, Cyno CD33 ECD-HSA (cynomolgus monkey); experiment: SPRi off-rate screen (IBIS MX96), mAb captured by anti-human Fc; column head prints Cyno CD33 binding KD
T2 construct: Cyno CD33 extracellular domain fused to monomeric human serum albumin and a six-histidine tag; also called C33W1
Description: as §2

Human CD33 ECD-HSA [4] = target: Human CD33 ECD-HSA (human); experiment: ProteOn SPR, mAb captured by anti-human Fc, 1:1 Langmuir fit
Description: (§3) The panel of mAbs was then further characterized for full affinity analysis as well as epitope binning. The binding of anti-CD33 mAbs to recombinant human CD33 ECD-HSA (C33W2) and cyno CD33 ECD-HSA (C33W1) was measured by ProteOn SPR (Bio-Rad). […] Different mAbs were captured on the anti-human Fc IgG surface at 0.25 or 0.5 μg/ml (160-300 RU) in vertical ligand orientation, with the 6th ligand channel as no ligand surface control. Human and cyno CD33-HSA proteins at 0.3 μM concentration in 3-fold dilution series of 5 concentrations flew in as analyte to bind to captured mAbs in the horizontal orientation. A buffer sample was also injected in the 6th channel to monitor the dissociation of captured mAb and baseline stability. […] The raw biding data were processed by double referencing after subtracting the response data from: 1) the inter-spot to correct for the non-specific interactions between the Ag and the empty chip surface; 2) the buffer channel to correct for baseline drifting due to the dissociation of captured mAb surface over time. The processed data at all antigen concentrations for each mAb were globally fit to a 1:1 simple Langmuir binding model to extract estimates of the kinetic (kₒₙ, koff) and affinity (Kd) constants.

[5] = target: T3, Human CD33 full length, expressed on HEK293F cells (human, UniProt P20138 18-364); experiment: flow cytometry, HEK293F cells expressing human CD33
T3 construct: HEK293F cells transduced with lentivirus containing full length human CD33; also called huCD33
Description: as §1

Cyno CD33 ECD-HSA [6] = target: T2, Cyno CD33 ECD-HSA; experiment: ProteOn SPR, mAb captured by anti-human Fc, 1:1 Langmuir fit
Description: as §3

Sequence of Human CD33 ECD-HSA (human) (chain, as listed by the source): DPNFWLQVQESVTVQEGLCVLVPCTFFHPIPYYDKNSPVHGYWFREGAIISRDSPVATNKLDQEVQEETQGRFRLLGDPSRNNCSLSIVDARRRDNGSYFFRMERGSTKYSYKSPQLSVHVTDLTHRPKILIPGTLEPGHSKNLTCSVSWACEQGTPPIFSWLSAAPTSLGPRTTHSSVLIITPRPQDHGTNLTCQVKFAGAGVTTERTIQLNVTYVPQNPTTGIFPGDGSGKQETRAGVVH
T3 sequence (P20138 18-364 limits assumed): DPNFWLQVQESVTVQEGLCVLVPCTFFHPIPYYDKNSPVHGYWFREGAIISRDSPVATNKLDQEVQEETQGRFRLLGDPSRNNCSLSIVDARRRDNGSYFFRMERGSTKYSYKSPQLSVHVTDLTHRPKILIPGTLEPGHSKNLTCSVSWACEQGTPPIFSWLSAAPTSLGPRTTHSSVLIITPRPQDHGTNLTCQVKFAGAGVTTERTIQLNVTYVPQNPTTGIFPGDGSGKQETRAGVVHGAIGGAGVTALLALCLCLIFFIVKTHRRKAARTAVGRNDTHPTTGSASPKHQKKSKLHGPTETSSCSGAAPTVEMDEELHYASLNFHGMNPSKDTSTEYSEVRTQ

Binder | MFI at 0 nM mAb (background) [1] | MFI at 0.6 nM mAb [1] | MFI at 6 nM mAb [1] | MFI at 60 nM mAb [1] | koff (Human CD33 ECD-HSA [2]) | koff (Cyno CD33 ECD-HSA [3]) | Kd (Human CD33 ECD-HSA [4]) | koff (Human CD33 ECD-HSA [4]) | kon (Human CD33 ECD-HSA [4]) | MFI at 0 nM mAb (background) [5] | MFI at 0.6 nM mAb [5] | MFI at 6 nM mAb [5] | MFI at 60 nM mAb [5] | Kd (Cyno CD33 ECD-HSA [6]) | koff (Cyno CD33 ECD-HSA [6]) | kon (Cyno CD33 ECD-HSA [6])
C33B48 (antibody, IgG1, V domains shown, huIgG1 F405L; also called C33F53; C33H80/C33L73) VH: QVQLVQSGSELRKPGASVKVSCKASGYTFTNYAMNWVRQAPGQGLEWMGWINTNTGNPTYAQGFTGRFVFSLDTSVSSAYLQISSLKAEDTAMYYCATDRDRGTDYWGQGTLVTVSS VL: QSALTQPASVSGSPGQSITISCTGTSSDVGDYNYVSWYQQHPGKVPKLMIYDVSNRPSGVSNRFSGSMSGNTASLTISGLQAEDEADYYCSSYSSSSALEVFGGGTKLTVL | 94 MFI | 43400 MFI | 47300 MFI | 56500 MFI | 5.47e-05 s⁻¹ | 0.00012 s⁻¹ | 0.0112 nM | 1.82e-05 s⁻¹ | 1.62e+06 M⁻¹ s⁻¹ | 91.1 MFI | 391000 MFI | 429000 MFI | 401000 MFI | 0.0366 nM | 0.000158 s⁻¹ | 4.31e+06 M⁻¹ s⁻¹
C33B46 (antibody, IgG1, V domains shown, huIgG1 F405L; also called C33F51; C33H108/C33L74) VH: QVQLVQSGSELKKPGASVKVSCKASGYTFSTYAMNWVRQAPGQGLEWMGWINTNTGNPTYAQGFTGRFVFSLDTSVSTAYLQISSLKAEDTAVYYCARDRDRGTDYWGQGTLVTVSS VL: QSALTQPASVSGSPGQSITISCTGTSSDVGDDNYVSWYQQHPGKAPKLMIYDVSNRPSGVSNRFSGSKSGNTASLTISGLQSEDEADYYCSSYSSSTTLEVFGGGTKLTVL | 92 MFI | 49700 MFI | 49800 MFI | 49800 MFI | 0.000467 s⁻¹ | 0.000148 s⁻¹ | 1.38 nM | 0.00199 s⁻¹ | 1.45e+06 M⁻¹ s⁻¹ | 135 MFI | 418000 MFI | 448000 MFI | 510000 MFI | 0.126 nM | 0.000375 s⁻¹ | 2.97e+06 M⁻¹ s⁻¹
C33B61 (antibody, V domains shown, huIgG1 F405L; also called C33F66; C33H48/C33L58) VH: QLQLQESGPGLVKPSETLSLTCTVSGGSIRSTNYYWGWIRQPPGKGLEWIGTIYYSGNTYYNPSLKSRVTISVDTSKNQFSLKLSSVTAADTAVYYCARLADVVVVPAARYFDYWGQGILVTVSS VL: not shown | 107 MFI | 1600 MFI | 8210 MFI | 13600 MFI | 0.00671 s⁻¹ | 0.00183 s⁻¹ | 21.4 nM | 0.0105 s⁻¹ | 489000 M⁻¹ s⁻¹ | 79.8 MFI | 5310 MFI | 38700 MFI | 199000 MFI | 2.21 nM | 0.00162 s⁻¹ | 734000 M⁻¹ s⁻¹
C33B62 (antibody, IgG1, V domains shown, huIgG1 F405L; also called C33F67; C33H49/C33L59) VH: QLQLQESGPGLVKPSETLSLTCTVSGGSIRSSGFYWGWIRQPPRKGLEWIGTIYYSGNTYYNPSLKSRVTISVDTSKNQFSLKLSSVTAADTAVYFCARLADVVVVPAARYFDNWGQGTLVTVSS VL: not shown | 934 MFI | 1920 MFI | 5620 MFI | 12700 MFI | 0.01 s⁻¹ | 0.00132 s⁻¹ | 24.9 nM | 0.0126 s⁻¹ | 507000 M⁻¹ s⁻¹ | 75 MFI | 6090 MFI | 37400 MFI | 158000 MFI | 1.85 nM | 0.00149 s⁻¹ | 805000 M⁻¹ s⁻¹

Other lines, results leading:

MFI at 0 nM mAb (background) [1] | MFI at 0.6 nM mAb [1] | MFI at 6 nM mAb [1] | MFI at 60 nM mAb [1] | koff (Human CD33 ECD-HSA [2]) | koff (Cyno CD33 ECD-HSA [3]) | Kd (Human CD33 ECD-HSA [4]) | koff (Human CD33 ECD-HSA [4]) | kon (Human CD33 ECD-HSA [4]) | MFI at 0 nM mAb (background) [5] | MFI at 0.6 nM mAb [5] | MFI at 6 nM mAb [5] | MFI at 60 nM mAb [5] | Kd (Cyno CD33 ECD-HSA [6]) | koff (Cyno CD33 ECD-HSA [6]) | kon (Cyno CD33 ECD-HSA [6]) | Binder
82.5 MFI | 5840 MFI | 13900 MFI | 19700 MFI | 0.00874 s⁻¹ | 0.00145 s⁻¹ | 9.53 nM | 0.00712 s⁻¹ | 747000 M⁻¹ s⁻¹ | 65 MFI | 14300 MFI | 84300 MFI | 259000 MFI |  |  |  | C33B122 (antibody, IgG1, V domains shown, huIgG1 F405L; also called C33F127; C33H92/C33L30) VH: QLQLQESGPGLVKPSETLSLTCTVSGGSIRSSSYYWGWIRQPPGKGPEWIGSIYSSGNTYYNPSLKSRVTISVDTSKNQFSLKLISMTAADTAVFYCARLAATIVVPAARYFDCWGQGTLVTVSS VL: SYELTQPPSVSVSPGQTVSISCSGDRLGDKYACWYQQKPGQSPVLVIYQDSKRPSGIPERFSGSNSGNTATLTISGTQAMDEADYYCQAWDSSSYVFGTGTKVTVL
78 MFI | 42200 MFI | 49100 MFI | 48900 MFI | 0.000859 s⁻¹ | 9.33e-05 s⁻¹ | 52.9 nM | 0.00203 s⁻¹ | 38500 M⁻¹ s⁻¹ | 130 MFI | 56600 MFI | 313000 MFI | 445000 MFI | 0.217 nM | 0.000266 s⁻¹ | 1.22e+06 M⁻¹ s⁻¹ | C33B66 (antibody, IgG1, V domains shown, huIgG1 F405L; also called C33F71; C33H55/C33L42) VH: QVQLQESGPGLVKPSGTLSLTCAVSGGSISSSNWWSWVRQPPGRGLEWIGEIYHSGNTNNSPSLKSRVTISADKSKNQFSLKLSSVTAADTAVYFCARIIAVARYFDSWGQGTLVTVSS VL: SYVLTQPPSVSVAPGQTARITCGGNNIGIKSVHWYQQKPGQAPVLVVYDDSDRPPGIPERFSGSNSGNTATLTITRVEAGDEADYYCQVWDSSSDHVVFGGGTKLTVL
61.1 MFI | 3230 MFI | 10400 MFI | 10700 MFI | 0.0103 s⁻¹ | 0.00274 s⁻¹ | 14.8 nM | 0.0152 s⁻¹ | 1.02e+06 M⁻¹ s⁻¹ | 71 MFI | 8860 MFI | 88200 MFI | 224000 MFI | 2.69 nM | 0.00339 s⁻¹ | 1.26e+06 M⁻¹ s⁻¹ | C33B123 (antibody, IgG1, V domains shown, huIgG1 F405L; also called C33F128; C33H91/C33L44) VH: QLQLQESGPGLVKPSETLSLTCTVSGGSISSRSHYWGWIRQPPGVGLEWIGSIYYTGSTYYNPSLKSRVTISVDTSKNQFSLKLSSVTAADTAVYYCARLADIVVVPAARYFDYWGQGTLVTVSS VL: not shown
79.7 MFI | 18000 MFI | 46100 MFI | 48000 MFI | 0.000398 s⁻¹ | 0.000106 s⁻¹ | 6.64 nM | 0.00108 s⁻¹ | 162000 M⁻¹ s⁻¹ | 70.1 MFI | 35500 MFI | 205000 MFI | 269000 MFI | 1.2 nM | 0.000269 s⁻¹ | 225000 M⁻¹ s⁻¹ | C33B101 (antibody, V domains shown, huIgG1 F405L; 260 is used; also called C33F106; C33H69/C4LL152) VH: QLQLQESGPGLVKPSETLSLTCTVSGGSISSSSYYWGWIRQPPGKGLDWIGSINYSGSTYYNPSLKSRVTISVDTSKIQFSLKLRSVTAADTAVYYCARLDGYESPFDYWGQGTLVTVSS VL: DIQMTQSPSSVSASVGDRVTITCRASQGISSWLAWYQQKPGKAPKLLIYAASSLQSGVPSRFSGSGSGTDFTLTISSLQPEDFATYYCQQANSFPFTFGPGTKVDIK

From patent US20230322924A1 (Janssen / Centocor, published 2023)
